The text below walks through data of patent US20090104177A1, “PEPTIDES FOR INHIBITING THE INTERACTION OF PROTEIN KINASE A AND PROTEIN KINASE A ANCHOR PROTEINS” (FORSCHUNGSVERBUND BERLIN E.V., priority 2004, published 2009).

No end group written: not given here.

Experiment [1] has as its target T1, regulatory RIIβ subunits of PKA (Rattus norvegicus, UniProt P12369).
T1 construct: Prof; Dr. Friedrich W. Herberg, University of Kassel, Germany (obtained from an academic laboratory, not a vendor)
In words: RII overlay of membrane-bound (SPOT) peptides, radiolabelled RIIβ as probe, densitometry. Conditions: in words. It counts as binding. An excerpt: (§1) Peptide libraries were synthesized by means of automatic SPOT synthesis on Whatman 50 cellulose membranes according to standard protocols using Fmoc chemistry and AutoSpot Robot ATE 222 (Intavis Bioanalytical Instruments AG, Cologne). The protective groups of the amino acid side chains were removed using a mixture of trifluoroacetic acid (TFA) in dichloromethane (DCM) (Frank, 1992; Kramer and Schneider-Mergener, 1998). For control, spots (about 50 nmol of peptide per spot) were cut from the cellulose membrane, removed from the membrane by treatment with 0.05 M NaOH, and analyzed using HPLC and MALDI-TOF mass spectrometry.
(§2) • 1. Regulatory RIIα (human) and RIIβ (rat) subunits of PKA, obtained from Prof. Dr. Friedrich W. Herberg, University of Kassel, Germany. • 2. Catalytic subunits of PKA, Promega, Mannheim, Germany, Order No. V5161 • 3. [γ-^32P]ATP, 5000 Ci/mmol, Amersham Biosciences, Brunswick, Germany, Order No. AA0018 • 4. Sephadex G 50, medium Pharmacia, Order No. 17-0043-01 • 5. Phosphate-buffered saline (PBS)
(§3) The ATP concentration was adjusted to 10 μM by addition of non-radioactive ATP (addition of 5 μl of a 1 mM solution). The batch was incubated on ice for another 50 min.
(§4) The reaction was quenched by adding dextran blue and removing free nucleotides. The free ATP was removed on a Sephadex G50 column.
(§5) Non-incorporated nucleotides were separated from the RII subunits by fractionation on Sephadex G 50 columns. • 1. Swelling of the Sephadex G 50 material: 20 g thereof was allowed to swell in 400 ml of PBS at room temperature overnight. Non-settled material was subsequently removed with a Pasteur pipette. The swollen material was aliquoted in 50 ml Falcon tubes and stored at 4° C. For preservation, sodium azide was added to make a final concentration of 0.01%. • 2. The material was poured into a 10 ml sterile disposable pipette sealed with a glass sphere. To settle the column bed, 50 ml of PBS containing 1 mg/ml BSA (bovine serum albumin) was allowed to pass.
(§6) Until used, the column was sealed with parafilm at the top thereof. • 3. The labelled RII subunits (500 μl), together with dextran blue (70 μl of a 20 mg/ml solution), were applied on the column (overall volume=570 μl). • 4. The sample was allowed to migrate into the matrix, followed by filling up with PBS. • 5. A short time before the dextran blue was eluted, collection of fractions was begun (2 fractions of 1.5 ml each, the other fractions 1 ml each). • 6. To determine the incorporation of ^32P, 1% (5.7 μl) of sample upstream of the column (corresponding to 1% of the radioactivity employed) and 3 μl of each fraction were used. • 7. The fractions of the first peak including the probe were combined. The incorporation rate in % was calculated and the specific activity (cpm/μg of protein) was determined.
(§7) • 1. The proteins (40 μg) were separated by means of SDS-PAGE and transferred on a PVDF membrane (PVDF: polyvinylidene fluoride) using a semi-dry electroblotting procedure. The membrane-associated proteins were stained with Ponceau S in order to identify the marker proteins on the membrane. Destaining was effected using TBS. • 2. The membrane was incubated in Blotto/BSA at 4° C. for 16 hours:
(§8) • 3. Blotto/BSA was replaced with fresh one and ^32P-labelled RII subunits were added (10^5 cpm/ml). This was incubated for 4-6 h at room temperature. • 4. The membrane was washed for 4×15 min in Blotto/BSA and for 2×10 min in 10 mM potassium phosphate buffer, pH 7.4, 0.15 M NaCl. • 5. RII-binding proteins were detected by exposition on a phosphoimager plate.
(§9) Identification of AKAP18δ-derived peptides inhibiting the interaction of AKAP proteins with the regulatory RIIα and RIIβ subunits of PKA. A: Peptides derived from the PKA binding domain of AKAP18δ were synthesized on two membranes. The membranes were incubated with radiolabelled regulatory RIIα (upper row) or RIIβ subunits (row below) of the PKA (RII overlay experiment). […]

Experiment [2] addresses T2, regulatory RIIα subunits of PKA (Homo sapiens, UniProt P13861).
T2 construct: Prof; Dr. Friedrich W. Herberg, University of Kassel, Germany (obtained from an academic laboratory, not a vendor)
In words: RII overlay of membrane-bound (SPOT) peptides, radiolabelled RIIα as probe, densitometry. It counts as binding. Conditions: for binding to RIIα subunits in RII overlay: human RIIα as probe, in words.
Description: as §1, §2, §3, §4, §5, §6, §7, §8, §9

The test system of experiment [3] is RII subunits of the PKAs. Put plainly: Summary statement on RII binding of AKAP18δ-derived negative control peptides. As to conditions: negative controls; in words. An excerpt: They have in common that binding is no longer present due to structural differences (1, 2) or differences in charge (3, 4).
The target in experiment [4] is human RIIα subunits (Homo sapiens, UniProt P13861). Put plainly: Surface plasmon resonance measurement of peptide binding to RIIα. Background: SPR reads the build-up and loss of mass on a sensor chip optically.
Chain of human RIIα subunits (P13861 whole entry): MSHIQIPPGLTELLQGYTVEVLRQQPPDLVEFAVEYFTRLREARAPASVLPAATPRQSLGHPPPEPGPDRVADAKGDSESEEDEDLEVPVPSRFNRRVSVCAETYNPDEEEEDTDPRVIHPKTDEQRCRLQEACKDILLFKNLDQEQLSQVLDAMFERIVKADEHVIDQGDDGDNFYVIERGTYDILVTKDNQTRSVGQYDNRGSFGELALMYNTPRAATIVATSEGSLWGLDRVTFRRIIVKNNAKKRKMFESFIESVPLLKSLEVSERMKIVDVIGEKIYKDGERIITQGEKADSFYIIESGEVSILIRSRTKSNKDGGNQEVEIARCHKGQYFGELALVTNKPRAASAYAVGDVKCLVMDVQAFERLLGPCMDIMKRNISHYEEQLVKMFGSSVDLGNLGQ
For experiment [5], the target named is RIIβ subunits from rats (Rattus norvegicus, UniProt P12369). In words: Surface plasmon resonance measurement of peptide binding to RIIβ.
Chain of RIIβ subunits from rats (P12369 whole entry): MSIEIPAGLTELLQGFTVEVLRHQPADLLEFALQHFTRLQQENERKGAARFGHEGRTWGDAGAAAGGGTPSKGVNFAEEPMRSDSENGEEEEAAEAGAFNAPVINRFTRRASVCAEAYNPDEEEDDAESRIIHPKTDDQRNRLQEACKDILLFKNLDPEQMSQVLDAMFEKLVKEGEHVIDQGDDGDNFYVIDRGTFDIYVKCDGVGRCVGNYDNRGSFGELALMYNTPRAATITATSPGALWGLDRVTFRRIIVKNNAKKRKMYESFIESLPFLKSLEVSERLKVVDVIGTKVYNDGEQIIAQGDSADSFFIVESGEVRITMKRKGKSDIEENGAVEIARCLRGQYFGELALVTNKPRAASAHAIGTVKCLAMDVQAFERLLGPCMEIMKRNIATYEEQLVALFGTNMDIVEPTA
For experiment [6], the target named is T3, regulatory RIIβ subunit of PKA (rat) (rat, UniProt P12369 1-416, 32P-labelled with the catalytic subunit of PKA when used as probe in the RII overlay experiments).
T3 construct: Radiolabelled probe in RII overlays; format in the surface plasmon resonance measurements is not described; also called RIIβ subunit of PKA from rats
T3 sequence (P12369 whole entry): as above
Put plainly: RII overlay: SPOT peptide on membrane, 32P-labelled RIIβ probe, phosphoimager, densitometry as % of AKAP18δ-wt.

The target of experiment [7] is T4, regulatory RIIα subunit of PKA (human) (human, UniProt P13861 1-404, 32P-labelled with the catalytic subunit of PKA when used as probe in the RII overlay experiments).
T4 construct: Radiolabelled probe in RII overlays; format in the surface plasmon resonance measurements is not described; also called human RIIα
T4 sequence (P13861 whole entry): as the sequence (P13861 whole entry) above
In words: RII overlay: SPOT peptide on membrane, 32P-labelled RIIα probe, phosphoimager, densitometry as % of AKAP18δ-wt.

The target in experiment [8] is T4, regulatory RIIα subunit of PKA (human). In words: RII overlay on SPOT membrane with radiolabelled RIIα.

T1 sequence (P12369 whole entry): as the sequence (P12369 whole entry) above
T2 sequence (P13861 whole entry): as the sequence (P13861 whole entry) above

In the case of ANDARLVRLNKRLVENAVLKAVQQY [10/11], in experiment [1], the “binding to RIIβ subunits in RII overlay” value is “no RIIβ”. Besides, the “binding to RIIα subunits in RII overlay” value in experiment [2] is recorded as “bind RIIα”. On the same counts, the results for ANDARLVRLPKRLVENAVLKAVQQY [10/12] are “no RIIβ” and “bind RIIα”. Take “ANDARLVRLSKRLRENAVLKAVQQY [A18δRIIα Hs1]”: the “binding to RIIα subunits in RII overlay” value in experiment [2] is recorded as “binding to RIIα”. With “ANDARLVRLSKRLVENAVLKAVQQY [peptide No. 7]”, the “difference in binding of the two PKA subunits (RIIα vs RIIβ)” value in experiment [2] (RII overlay on two membranes, quantitative evaluation (FIG. 3)) is “marked difference”. As for ANDARLVRLSKRLVENAVLKFVQQY [21/4], the “binding to RIIβ subunits in RII overlay” value was “vice versa” in experiment [1], “binding to RIIβ” in experiment [1] (listed as A18δRIIβRn1) and “selectively binds RIIβ subunits” in experiment [1] (listed as A18δRIIβRnl). Also, the “binding to RIIα subunits in RII overlay” value in experiment [2] is “vice versa”. Take “ANDARLVRLSKRLYENAVLKAVQQY [A18δRIIα Hs2]”: in experiment [2], the “binding to RIIα subunits in RII overlay” value is listed as “binding to RIIα”.

For “PEDAELVRLDKRLPENAPLKAVQQY (also: phosphorylated; listed as Homo sapiens) [AKAP18δ-phos]”, the “binding of RII subunits of the PKAs” value in experiment [3] was “absent binding”. Take PEDAELVRLSKRLPENAPLKAVQQY [AKAP18δ-PP]: the “RIIα binding KD” value in experiment [4] is listed as “no binding”. Besides, the “RIIβ binding KD” value in experiment [5] was “no binding”. Further, in experiment [3], the “binding of RII subunits of the PKAs” value is “absent binding”. PEDAELVRLSKRLPENAVLKAVQQY [AKAP18δ-P]: the “RIIα binding KD” value in experiment [4] is “no binding”. The “RIIβ binding KD” value in experiment [5] is given as “no binding”. Besides, the “binding of RII subunits of the PKAs” value in experiment [3] is given as “absent binding”.

Consider PEDAELVRLSKRLVENAVLKAVQQY [AKAP18δ-wt], for which the Kd – broadly, the concentration at which binding is half-saturated – lay within 0.4 to 1.5 nM in experiment [4] and 1 to 6 nM in experiment [5]. On to PEDAELVRLSKRLVENAVLQAVQQY (AKAP18δ-derived; also called No. N) [Peptide 14], for which the binding result in experiment [6] and in experiment [7] was “binds” throughout. Regarding PEDAELVRLSKRLVENAVLNGNQQY (AKAP18δ-derived; also called No. Q) [Peptide 17], the binding result in experiment [6] and in experiment [7] was “binds” throughout.

Turning to PEDAELVRLSKRLVENAVKNGNQQY (AKAP18δ-derived; also called No. R) [Peptide 18], the binding result in experiment [6] and in experiment [7] was “binds” in each case. Regarding PEDAELVRLSKRLVENAVKNGAQDY (AKAP18δ-derived; also called No. S) [Peptide 19], the binding result in experiment [6] and in experiment [7] was “binds” each time.

Consider PEDAELVRLSKRLVENAVLNGQQQY (AKAP18δ-derived; also called No. P) [Peptide 16], for which the binding result in experiment [6] and in experiment [7] was “binds” in each case. As to PEDAELVRLSKRLVENAVLNGVQQY (AKAP18δ-derived; also called No. O) [Peptide 15], the binding result in experiment [6] and in experiment [7] was “binds” each time.

As for ANDARLVRLSKRLVENAVLKAVQQY (also called peptide 7; No. G) [peptide No. 7 (AKAP18δ-derived, FIG. 3)], the binding result in experiment [6] and in experiment [7] was “binds” in each case. For the molecule ASDAKTVRLSKRLVENAVLKAVQQY (AKAP18δ-derived; also called No. I) [Peptide 9], the binding result in experiment [6] and in experiment [7] was “binds” in each case. As for ANDAKTERLSQRLVENAVLKAVQQY (AKAP18δ-derived; also called No. K) [Peptide 11], the binding result in experiment [6] and in experiment [7] was “binds” in each case.

B1: A18δRIIαHs1 (14/14) (peptide)
peptide: ANDARLVRLSKRLRENAVLKAVQQY
notes: Member of the substitution library of peptide 7 (row 14, peptide 14); also called No. BB
On to B1, for which, in experiment [8], the binding result is “binds”. Take ARDAQLVRLSKRLVENAVLKAVQQY (AKAP18δ-derived; also called No. F) [Peptide 6]: the binding result in experiment [6] and in experiment [7] was “binds” throughout. Consider ASDAQLVRLSKRLVENAVLKAVQQY (AKAP18δ-derived; also called No. C) [Peptide 3], for which the binding result in experiment [6] and in experiment [7] was “binds” in each case. As for ASDAKLVRLSKRLVENAVLKAVQQY (AKAP18δ-derived; also called No. D) [Peptide 4], the binding result in experiment [6] and in experiment [7] was “binds” throughout. Turning to ASDARLVRLSKRLVENAVLKAVQQY (AKAP18δ-derived; also called No. H) [Peptide 8], the binding result in experiment [6] and in experiment [7] was “binds” each time. With ANDAKTERLSKRLVENAVLKAVQQY (AKAP18δ-derived; also called No. J) [Peptide 10], the binding result in experiment [6] and in experiment [7] was “binds” in each case. With ARDAKLVRLSKRLVENAVLKAVQQY (AKAP18δ-derived; also called No. E) [Peptide 5], the binding result in experiment [6] and in experiment [7] was “binds” each time. In the case of ANDAKTQRLSQRLVENAVLKAVQQY (AKAP18δ-derived; also called No. L) [Peptide 12], the binding result in experiment [6] and in experiment [7] was “binds” throughout.

B2: A18δRIIαHs2 (14/19) (peptide)
peptide: ANDARLVRLSKRLYENAVLKAVQQY
notes: Member of the substitution library of peptide 7 (row 14, peptide 19); also called No. CC
Consider B2, for which the binding result in experiment [8] is recorded as “binds”.
